Data as given in article PMC11196586, “Molecular insight into interactions between the Taf14, Yng1 and Sas3 subunits of the NuA3 complex” (Nature Communications, 2024).

How the values were obtained:
[1] = target: T1, Taf14ET (Saccharomyces cerevisiae, UniProt P35189); experiment: NMR 1H,15N HSQC titration (chemical shift perturbations), Taf14ET; type: binding; settings: 15N-labelled Taf14ET, 298 K, increasing amounts of mutated peptide
T1 construct: Taf14ET (aa 168-243); His; made in house; host or cells: Escherichia coli Rosetta-2 (DE3) pLysS
T1 sequence (P35189 168-243): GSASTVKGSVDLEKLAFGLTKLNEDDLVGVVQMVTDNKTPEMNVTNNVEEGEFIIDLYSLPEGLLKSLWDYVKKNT
Description: (§1) Nuclear magnetic resonance experiments were performed at 298 K on Varian INOVA 900 MHz (for Taf14FL) and 600 MHz (for Taf14ET and Taf14YEATS) spectrometers equipped with cryogenic probes as described. The NMR samples contained 0.05–0.2 mM uniformly ^15N-labeled Taf14 proteins in 50 mM Tris-HCl (pH 6.8–7.5), 150 mM NaCl, 0–5 mM DTT or 1x PBS (pH 6.6–7.5), supplemented with up to an additional 100 mM NaCl, 0–5 mM DTT or 0.2 mM TCEP and 8-10% D2O. Binding was characterized by monitoring chemical shift changes in ^1H,^15N HSQC spectra of the proteins induced by the addition of wild type or mutated Yng1EBM (aa 113-124), Sas3EBM (aa 111-122) and Yng1EBM-PHD (aa 100-219). NMR data were processed and analyzed using NMRPipe as previously described, with the apparent Kds being determined by a nonlinear least-squares analysis and a 1:1 stoichiometry in GraphPad Prism using the equation:2 Δδ=ΔδmaxL+P+Kd−L+P+Kd^2−4PL/2P Where [L] is the concentration of the peptide, [P] is concentration of the protein, Δδ is the observed chemical shift change, and Δδ max is the normalized chemical shift change at saturation. Normalized chemical shift changes were calculated using the equation δ=ΔδH^2+(ΔδN/5)^2 (3), where Δδ is the change in chemical shift in parts per million (ppm).

[2] = test system: Taf14YEATS; experiment: NMR 1H,15N HSQC titration, Taf14YEATS; type: binding, Saccharomyces cerevisiae; settings: 298 K
Description: as §1

[3] = test system: Taf14FL-601 DNA complex; experiment: EMSA of 601 Widom DNA with Taf14FL with or without peptide; type: biochemical, Saccharomyces cerevisiae; settings: protein preincubated with peptide at 1:2.5 molar ratio; 8% native polyacrylamide gel
Description: (§2) EMSAs were performed by mixing increasing amounts of Taf14 proteins with 0.25 pmol/lane of 601 DNA in 25 mM Tris-HCl pH 7.5, 25-100 mM NaCl, 0.2 mM ethylenediaminetetraacetic acid (EDTA), 10% glycerol and 1 mM DTT in 10 µL reaction volume. The Taf14 proteins were either preincubated with Yng1EBM at a 1:2.5 molar ratio or with Yng1EBM and Sas3EBM at a 1:1:1 molar ratio for a minimum of 1 h on ice or used without peptides prior to addition of DNA. Reaction mixtures were incubated at 4 °C for 10 min (2-2.5 µl of loading dye was added to each sample) and loaded onto an 8% native polyacrylamide gel. Electrophoresis was performed in 0.5x Tris-borate-EDTA (TBE) at 80–120 V on ice. The gels were stained with SYBR Gold (Thermo Fisher Sci) and visualized by Blue LED (UltraThin LED Illuminator-GelCompany).

[4] = test system: Taf14ET-601 DNA complex; experiment: EMSA of 601 Widom DNA with Taf14ET with or without peptide; type: biochemical, Saccharomyces cerevisiae; settings: protein preincubated with peptide at 1:2.5 molar ratio; 8% native polyacrylamide gel
Description: as §2

[5] = target: the molecule itself; experiment: crystal structure; Taf14ET co-crystallized with Yng1EBM peptide (molar ratio 1:2.5); 40% PEG 400, 0.1 M Tris pH 8.5, 0.2 M LiSO4; 1.9 Å
[6] = target: T2, Taf14FL (full length Taf14, aa 1-244) (S. cerevisiae, UniProt P35189 1-244); experiment: other fluorescence titration; tryptophan fluorescence, 25 °C; 1 μM Taf14ET or Taf14FL, increasing peptide; 50 mM Tris-HCl pH 6.8 or 7.5, 150 mM NaCl, 1 mM DTT or 0.2 mM TCEP; excitation 295 nm; apparent Kd, 1:1 stoichiometry; settings: both partners purified
T2 construct: Taf14, S. cerevisiae, UniProt P35189, aa 1-244; uniformly 15N-labelled for NMR; also called transcription initiation factor subunit 14
T2 sequence (looked up): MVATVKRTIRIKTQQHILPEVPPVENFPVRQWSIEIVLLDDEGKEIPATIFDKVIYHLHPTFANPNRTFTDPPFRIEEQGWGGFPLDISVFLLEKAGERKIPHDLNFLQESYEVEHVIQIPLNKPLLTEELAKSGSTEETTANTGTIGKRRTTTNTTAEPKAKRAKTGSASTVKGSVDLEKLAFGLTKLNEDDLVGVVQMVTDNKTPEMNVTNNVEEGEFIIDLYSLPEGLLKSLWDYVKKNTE

[7] = target: T3, Taf14ET (extra-terminal domain of Taf14, aa 168-243) (S. cerevisiae, UniProt P35189 168-243); experiment: as above; settings: both partners purified
T3 construct: Taf14, S. cerevisiae, UniProt P35189, ET domain, aa 168-243; Uniformly 15N-labelled for NMR; also called ET domain of Taf14
T3 sequence (looked up): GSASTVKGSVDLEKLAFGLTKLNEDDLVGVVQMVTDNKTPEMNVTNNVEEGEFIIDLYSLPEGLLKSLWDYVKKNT

[8] = target: T2, Taf14FL (full length Taf14, aa 1-244); experiment: other fluorescence titration; tryptophan fluorescence of Taf14FL with Yng1EBM in the presence of H3K9cr peptide at a 1:10 Taf14FL:H3K9cr molar ratio; apparent Kd, 1:1 stoichiometry; settings: both partners purified
[9] = target: T4, His-Taf14FL (aa 1-244) (S. cerevisiae, UniProt P35189 1-244, labeled using a His-Tag Labeling Kit RED-tris-NTA (2nd Generation)); experiment: MST; His-tagged Taf14 labeled with RED-tris-NTA, kept at 10 nM; unlabeled peptide added stepwise; 20 mM Tris-HCl pH 7.5, 150 mM NaCl, 2.5 mM DTT or 0-0.2 mM TCEP; apparent Kd, 1:1 stoichiometry; settings: both partners purified
T4 construct: Taf14, S. cerevisiae, UniProt P35189, aa 1-244; His-tagged form used for MST; source: E. coli Rosetta-2 (DE3) pLysS, purified (Ni-NTA, SEC)
T4 sequence (looked up): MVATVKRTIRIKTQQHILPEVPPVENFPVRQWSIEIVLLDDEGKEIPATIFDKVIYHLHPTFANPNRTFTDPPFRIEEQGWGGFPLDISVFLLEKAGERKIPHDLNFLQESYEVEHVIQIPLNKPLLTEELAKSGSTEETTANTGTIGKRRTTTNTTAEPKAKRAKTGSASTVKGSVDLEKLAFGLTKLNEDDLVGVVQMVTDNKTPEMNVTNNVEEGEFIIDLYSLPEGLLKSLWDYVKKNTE

[10] = target: T3, Taf14ET (extra-terminal domain of …); experiment: NMR titration; 1H,15N HSQC of 0.05-0.2 mM 15N-labeled Taf14 proteins, 298 K, unlabeled peptide or Yng1EBM-PHD added; Tris-HCl or PBS, pH 6.6-7.5; apparent Kd from CSPs, 1:1 stoichiometry; settings: both partners purified

Molecule: V116D Sas3EBM: Sas3EBM peptide with single point substitution V116D (SEELKDRIKYDS)
- binding of wild type Taf14ET judged by CSPs in 1H,15N HSQC spectra [1]: abrogated binding

Molecule: I118D Sas3EBM: Sas3EBM peptide with single point substitution I118D (SEELKVRDKYDS)
- binding of wild type Taf14ET judged by CSPs in 1H,15N HSQC spectra [1]: abrogated binding

Molecule: Ac-EPKLLLKINLKK-NH2 [Yng1EBM]
- CSPs induced in 15N-labeled Taf14YEATS [2]: No CSPs
- effect of peptide on binding of Taf14FL to 601 DNA (EMSA) [3]: enhanced
- effect of peptide on DNA binding activity of isolated Taf14ET (EMSA) [4]: increased

Molecule: I120D Yng1EBM: Yng1EBM peptide with I120 replaced with aspartate (EPKLLLKDNLKK)
- binding of wild type Taf14ET judged by CSPs in 1H,15N HSQC spectra [1]: almost negligible CSPs

B1: Yng1EBM peptide (aa 113-124 of Yng1), Ac-EPKLLLKINLKK-NH2 (peptide)
peptide: Ac-EPKLLLKINLKK-NH2
notes: also called Yng1 peptide; source: synthetic peptide (Synpeptide)
- stoichiometry N [5]: 2
- Kd [6]: 1.1 µM
- Kd [7]: 0.6 µM
- Kd [8]: 0.9 µM
- Kd [9]: 1.2 µM

B2: L116D Yng1EBM peptide (aa 113-124 of Yng1) (peptide, UniProt Q08465 113-124, looked up)
peptide: EPKDLLKINLKK
notes: The wild-type peptide is Ac-...-NH2; source: peptide
- Kd [10]: 180 µM

B3: L118D Yng1EBM peptide (aa 113-124 of Yng1) (peptide, UniProt Q08465 113-124, looked up)
peptide: EPKLLDKINLKK
notes: as for B2
- Kd [10]: 430 µM
